Here are results for two molecules from US20250002610A1 (Genmab, published 2025).

As a reminder, the EC50 is the concentration that produces a half-maximal response.

Assay [1] deals with T1, cynomolgus monkey DR4 with death domain deletion on ExpiCHO-S cells (cynomolgus monkey (Macaca fascicularis)).
T1 construct: also called cynomolgus DR4
T1 chain: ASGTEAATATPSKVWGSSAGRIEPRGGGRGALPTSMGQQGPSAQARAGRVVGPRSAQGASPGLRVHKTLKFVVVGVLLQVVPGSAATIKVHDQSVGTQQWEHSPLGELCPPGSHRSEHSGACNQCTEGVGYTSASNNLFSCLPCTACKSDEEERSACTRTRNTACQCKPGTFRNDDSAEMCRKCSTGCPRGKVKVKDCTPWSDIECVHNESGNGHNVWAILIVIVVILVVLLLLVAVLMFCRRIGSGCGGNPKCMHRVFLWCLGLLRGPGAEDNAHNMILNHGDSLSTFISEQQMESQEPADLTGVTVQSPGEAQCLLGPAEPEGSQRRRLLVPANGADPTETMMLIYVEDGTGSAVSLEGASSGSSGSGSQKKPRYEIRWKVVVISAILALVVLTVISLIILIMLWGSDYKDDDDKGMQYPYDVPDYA
The experiment in a line: flow cytometry, ExpiCHO-S cells expressing cynomolgus monkey DR4, average ± SEM. As to the method: Binding of BisG1-FAPα-FERL/DR4-FERR, BisG1-DR4-FEAL/b12-FEAR and IgG1-DR4-FERR to DR4 of various species commonly used for nonclinical toxicology studies was assessed by flow cytometry using ExpiCHO-S cells transiently expressing DR4 from different animal species. In contrast to other species, rodents only express one DR which has highest homology with human DR5. Therefore, ExpiCHO-S cells transiently expressing rat and mouse DR protein were used instead. All DR constructs lack the intracellular DD to avoid apoptosis of transfected cells upon DR(4) activation. IgG1-b12 was used as negative control.

The target of assay [2] is T2, FcγRIIb (CD32B/Fcgr2b Protein, Human, Recombinant (His & AVI Tag), Biotinylated) (human, UniProt P31994 43-217, limits assumed, biotinylated).
T2 construct: Bought reagent; not shown: His & AVI tag
T2 sequence (looked up): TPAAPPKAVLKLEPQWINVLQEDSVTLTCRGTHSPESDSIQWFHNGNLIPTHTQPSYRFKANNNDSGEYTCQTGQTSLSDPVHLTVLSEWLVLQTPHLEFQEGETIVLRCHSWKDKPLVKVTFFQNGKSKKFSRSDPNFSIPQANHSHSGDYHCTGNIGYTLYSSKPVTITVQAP
The assay is described as follows: SPR (Biacore 8K), His-tagged FcγRIIb captured on an anti-His chip, antibody as analyte, endpoint response against concentration. The method, then: Binding of BisG1-FAPα-FERL/DR4-FERR to immobilized human His-tagged FcγRs and FcRn was analyzed by SPR using a Biacore 8K SPR system (Cytiva). To this end, anti-His antibodies were covalently immobilized on the surface of Biacore Series S Sensor Chip CM5 (Cytiva, Cat. #29104988) using the Amine Coupling Kit (Cytiva, Cat. #BR100050) and a His Capture Kit (Cytiva, Cat. #29234602) according to the manufacturer's instructions. To assess antibody binding to immobilized human FcγRs, aliquots of the recombinant His-tagged FcγR proteins (Table 24) were diluted in HBS EP+Buffer pH 7.4 (Cytiva, Cat. #BR100669) and used to capture the FcγR proteins on the surface of the anti-His antibody-coated sensors using a flow rate of 10 μL/min and a contact time of 60 s. Captured levels ranged from 434 to 592 RU. After three start-up cycles of HBS-EP+Buffer, concentration ranges of BisG1-FAPα-FERL/DR4-FERR or IgG1-b12 antibodies (Table 25) were injected to generate binding curves on FcγR-captured sensors (active surface). For each antibody sample, a parallel flow cell without captured FcγRs was included (reference surface), which was used for RU background correction.
All sensorgrams were subtracted by the signal of the third start-up cycle with buffer only (mock analyte). […]
(In general: In SPR one partner is held on a chip, and binding of the other changes the refractive index at the surface.)

B1: IgG1-DR4-FERR (antibody, V domains shown)
VH: QVQLQESGPGLVKPSGTLSLTCAVSGGSISSYSWWSWIRQPPGKGLEWIGELYHSGSTNYNPSLKSRVTISVDKSKNQFSLKLRSVTAADTAVYYCVRGVATIDYWGQGTLVTVSS
VL: QSALTQPPSASGSPGQSVTISCTGTSSDVGGYNFVSWYQQDPGKAPKLLIYEVTKRPSGVPDRFSGSKSGNTASLTVSGLQAEDEADYYCSSYAGSNNVMFGGGTKLTVLG
notes: Bivalent monoclonal IgG1 lambda
In assay [1], B1 displayed an EC50 of 1.84 mg/L.

B2: IgG1-b12 (antibody)
heavy: not shown
light: EIVLTQSPGTLSLSPGERATFSCRSSHSIRSRRVAWYQHKPGQAPRLVIHGVSNRASGISDRFSGSGSGTDFTLTITRVEPEDFALYYCQVYGASSYTFGQGTKLERKRTVAAPSVFIFPPSDEQLKSGTASVVCLLNNFYPREAKVQWKVDNALQSGNSQESVTEQDSKDSTYSLSSTLTLSKADYEKHKVYACEVTHQGLSSPVTKSFNRGEC
notes: HIV gp120 antibody b12 with wild-type IgG1 Fc; also called IgG-b12
Take B2: the binding result in assay [2] is recorded as “binds”.
